Results on one molecule are retold here after patent publication US20240277831A1 (University of Washington, published 2024).

The target in one assay is Monomeric SARS-CoV-2 RBD (SARS-CoV-2, UniProt P0DTC2 328-531).
Assay [1] addresses RBD-8GS-I53-50A trimeric component (SARS-CoV-2).
Assay [2] addresses RBD-12GS-I53-50A trimeric component (SARS-CoV-2).

B1: monomeric human ACE2 (hACE2) ectodomain (receptor)
chain: STIEEQAKTFLDKFNHEAEDLFYQSSLASWNYNTNITEENVQNMNNAGDKWSAFLKEQSTLAQMYPLQEIQNLTVKLQLQALQQNGSSVLSEDKSKRLNTILNTMSTIYSTGKVCNPDNPQECLLLEPGLNEIMANSLDYNERLWAWESWRSEVGKQLRPLYEEYVVLKNEMARANHYEDYGDYWRGDYEVNGVDGYDYSRGQLIEDVEHTFEEIKPLYEHLHAYVRAKLMNAYPSYISPIGCLPAHLLGDMWGRFWTNLYSLTVPFGQKPNIDVTDAMVDQAWDAQRIFKEAEKFFVSVGLPNMTQGFWENSMLTDPGNVQKAVCHPTAWDLGKGDFRILMCTKVTMDDFLTAHHEMGHIQYDMAYAAQPFLLRNGANEGFHEAVGEIMSLSAATPKHLKSIGLLSPDFQEDNETEINFLLKQALTIVGTLPFTYMLEKWRWMVFKGEIPKDQWMKKWWEMKREIVGVVEPVPHDETYCDPASLFHVSNDYSFIRYYTGTLYQFQFQEALCQAAKHEGPLHKCDISNSTEAGQKLFNMLRLGKSEPWTLALENVVGAKNMNVRPLLNYFEPLFTWLKDQNKNSFVGWSTDWSPYADPLVPR
Regarding B1, the Kd – broadly, the constant that tells how readily two partners part at equilibrium – is 69 nM in the assay with Monomeric SARS-CoV-2 RBD, 70 nM in assay [1] and 78 nM in assay [2]. Also, the koff (usually a measure of how fast the partners let go of each other) stood at 0.005 s⁻¹ with Monomeric SARS-CoV-2 RBD, 0.004 s⁻¹ in assay [1] and 0.005 s⁻¹ in assay [2]. Besides, the kon – broadly, a measure of how fast the partners come together – in the assay with Monomeric SARS-CoV-2 RBD is 70000 M⁻¹ s⁻¹; in assay [1], 60000 M⁻¹ s⁻¹; in assay [2], 60000 M⁻¹ s⁻¹.
